Experimental findings from patent US9371374 are described below.

Assay [1] addresses HCV Core1-169 (HCV-1) (UniProt P26664). Briefly: SPR sandwich, C11-14 capture.
Assay [2] addresses biotinylated HCV core peptide 141-161 (Peptide 2) (HCV-1). Description: EIA, captured mAb.
In assay [3] the target is biotinylated HCV core peptide 151-171 (Peptide 3) (HCV-1). Description: EIA, captured mAb.
In assay [4] the target is biotinylated HCV core peptide 134-154 (Peptide 1) (HCV-1). Briefly: EIA, captured mAb.
Assay [5] deals with HCV Core1-169 (HCV-1) (UniProt P26664). Briefly: SPR sandwich, C11-7 capture.
Assay [6] has the same target. Briefly: SPR sandwich, C11-3 capture.
The target is the same in assay [7]. Description: SPR sandwich, C11-9 capture.
Assay [8] deals with biotinylated HCV core peptide 151-171 (Peptide 3) (HCV-1). Briefly: EIA, captured mAb. This is another data set of the same source.
In assay [9] the target is biotinylated HCV core peptide 141-161 (Peptide 2) (HCV-1). Briefly: EIA, captured mAb. This is another data set of the same source.
In assay [10] the target is biotinylated HCV core peptide 134-154 (Peptide 1) (HCV-1). Briefly: EIA, captured mAb. This is another data set of the same source.
Assay [11] concerns the target HCV Core1-169 (HCV-1) (UniProt P26664). Description: EIA, coated core1-169.
The target in assay [12] is T1, HCV Core1-169 (HCV-1), P26664.
T1 chain: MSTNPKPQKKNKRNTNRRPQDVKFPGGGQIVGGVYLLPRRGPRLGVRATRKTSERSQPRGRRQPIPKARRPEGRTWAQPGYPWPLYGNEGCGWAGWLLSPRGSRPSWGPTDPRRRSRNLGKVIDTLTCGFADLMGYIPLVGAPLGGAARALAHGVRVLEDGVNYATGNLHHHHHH
Description: SPR sandwich, C11-9 capture. The conditions noted are these: remark: other sources report otherwise.

For assay [13] the target is unchanged. Description: SPR sandwich, C11-3 capture. The conditions noted are these: remark: other sources report otherwise.
Assay [14] shares this target. Description: SPR sandwich, C11-7 capture. The conditions noted are these: remark: other sources report otherwise.
For assay [15] the target is unchanged. Briefly: SPR sandwich, C11-14 capture. The conditions noted are these: remark: other sources report otherwise.

Like-named read-outs stand apart in the source and are kept apart here. A value given as a limit tells only on which side of the number the result lay.

B1: HCV 208A-874 (antibody, V domains shown)
VH: QVQLQQPGAELVKPGASVKLSCKASGYTLSSYWMHWVKQRPGQGLEWIGEIHPSDSYTSYNQKFKDKATLTVDKSSSTAYMQLSSLTSEDSAVYYCARGGYYRYDEFAYWGQGTLVTVSA
VL: DIVMTQSHKFMSTSIGDRVSITCKASQNVSPAVAWYQQKPGQSPKLLIYSASSRYTGVPDRFTGSGSGTAFTFTISSVQAEDLAVYFCQQHFSTPWTFGGGTMLEIKR
As to B1, the expected % binding in the assay with HCV Core1-169 (HCV-1) [1], in the assay with HCV Core1-169 (HCV-1) [5], in the assay with HCV Core1-169 (HCV-1) [6] and with HCV Core1-169 (HCV-1) [7] was less than 1% each time. In addition, the Reactivity (OD492) is 0.73 OD in [2], 0.06 OD in assay [3] and 0.05 OD in assay [4].

B2: HCV 208B-793 (antibody, V domains shown)
VH: EVKLVESGGGLVQPGGSLKLSCAASGFTFSSYAMSWVRQTPERRLEWVTYISNGGGSTYYSDTVKGRFTFSRDNAKNTLYLQMSSLKSEDTAMYYCARHGLGRTGFASWGQGTLVTVSA
VL: DIVMTQSHKFMSTSVGDRVSITCKASQDVGTAVAWYQQKPGQSPKLLIYWASTRHTGVPDRFTGSGSGTDFTLTISNVQSEDLADYFCQQYSNYLTFGAGTKLEVKR
Consider B2, for which the results for the Reactivity (OD492) in [2], in [3] and in assay [4] were 0.72 OD, 0.09 OD and 0.09 OD, respectively.

B3: HCV 208A-967 (antibody, V domains shown)
VH: QVQLEESGPGLVAPSQSLSITCTVSGFSLTSYGVHWVRQPPGKGLEWLGVIWAVGSINYNSALMSRLSISKDNSKSQVFLKMNSLRTDDTAMYYCARDRTTATPFFDYWGQGTTLTVSS
VL: DIVLTQSPASLAGSLGKRAPISCKASESVNFFGTNLIHWYQQKPGQPPKLLIYHASNLKTGVPARFRGRGSKTNFPLPIDPVEENDVAIYYCLQNRKIPLTFGVGTKLELKR
For the molecule B3, the expected % binding with HCV Core1-169 (HCV-1) [1], with HCV Core1-169 (HCV-1) [5], with HCV Core1-169 (HCV-1) [6] and in the assay with HCV Core1-169 (HCV-1) [7] was less than 1% throughout. For the same molecule, the Reactivity (OD492) in assay [8] worked out at 0.18 OD; in assay [9] it was 0.73 OD; in assay [10], 0.52 OD.

B4: HCV 208B-826 (antibody, V domains shown)
VH: DVQLVESGGGLVQAGGSRKLSCAASGFPFSSFGMHWVRQAPEKGLEWVASISSRTSKIYYADNLKGRFTISRDNPKNTLFLQMTSLGSEDTAMYYCVRSVFGNSYWFFDVWGAGTTVTVSS
VL: DIVLTQSPATLSVTPGDRVSLSCRASQRIYNYLHWYQQKSHESPRLLTKYASQSISGIPSRFSGSGSGTDFILTINSVETEDFGMYFCQQSNSWPLTFGAGTKLELRR
B4: the Reactivity (OD492) turned out to be 1.35 OD in assay [2], 0.08 OD in assay [3] and 0.53 OD in assay [4].

B5: HCV 208B-862 (antibody)
chain 1: DVQLQESGPGLVKPSQSLSLTCTVTGYSITSDYAWNWIRQFPGNKLEWMGYISYSGTTVYSPSLKSRISITRDTSKNQFFLQLNSVTIEDSATYYCGGNYWGQGTLVTVSA
chain 2: DVVLTQTPLSLPLSLGDQASISCRSSQTLLHSDGDTYLHWYLQKPGQSPKLLIYKLSNRFSGVPDRFSGSGSGTDFTLKISRVEAEDLGVYFCSQSTHVPYTFGGGTKLEIKR
For B5, the results for the Reactivity (OD492) in assay [2], in assay [3] and in [4] were 3.28 OD, 0.1 OD and 0.21 OD, respectively.

B6: HCV 208B-353 (antibody, V domains shown)
VH: EVQLVESGGDLVKPGGSLKLSCAASGFTFNHYGMSWVRQPPDKRLEWVATISSGGGYTYYPDSVKGRFTISRDNAKDTLSLQMSSLRSGDTAVYYCASLYGSLFAYWGQGTLVTVSA
VL: DIVMTQSQKFMSTTVGDRVRVTCKASQNVGTAVAWYQQKPGQSPKLLIYSASNRYTGVPDRFTGSGSGTDFTLTITNMQSEDLADYFCQQYSTYPLTFGSGAKLEIKR
Regarding B6, the expected % binding is 2.4% with HCV Core1-169 (HCV-1) [1], 2.6% with HCV Core1-169 (HCV-1) [5], 1.9% with HCV Core1-169 (HCV-1) [6] and less than 1% in the assay with HCV Core1-169 (HCV-1) [7]. In addition, the OD (A492) in the assay with HCV Core1-169 (HCV-1) [11] stood at 0.3 OD. For the same molecule, the Reactivity (OD492) in assay [2] came out at 2.47 OD; in assay [3], 0.07 OD; in assay [4], 0.07 OD.

B7: HCV 208B-822 (antibody, V domains shown)
VH: QVQLKQSGPGLVQPSQSLSITCTVSGFSLITYGVHWVRQSPGKGLEWLGVIWGGGSTGYNAAFVSRLNITKDNSKSQVFFKMNSLQPDDTAIYYCARNGGATVFDYWGQGTTLTVSS
VL: DIVMTQSPATLSVTPGDRVSLSCRASQTISDYLHWYQQKSHESPRLLIKYASQSISGIPSRFSGSGSGSHFTLSINSVEPEDVGVYYCQNGHSFPWTFGGGTKLEIKR
Turning to B7, the figures for the Reactivity (OD492) in assay [2], in assay [3] and in [4] were 1.35 OD, 0.07 OD and 0.08 OD, respectively.

B8: HCV 208B-174 (antibody, V domains shown)
VH: EVKLEESGGGLVQPGGSMKLSCVASGFSFSSYWMSWVRQSPEKGLDWVAEIRLRSDNYATHYAESVKGRFTISRDDSISRLYLQMNTLRAEDTGIYYCTWMTYWGQGTLVTVSA
VL: QNVLTQSPAIMSASPGEKVTMSCSASSSVTYMFWYQLKPESSPRLLIYDTSNLASGVPVRFSGSGSGTSYSLTISRMEAEDAATYYCQEWSSYPLTFGAGTKLDLKR
In the case of B8, the expected % binding is less than 1% in assay [12], 1.6% in assay [13], 1.5% in assay [14] and 1.6% in assay [15]. Besides, the Reactivity (OD492) in [2] amounted to 1.26 OD; in assay [3] it was 0.07 OD; in assay [4], 0.08 OD.

B9: HCV 208B-911 (antibody, V domains shown)
VH: QVHLQQPGAELVRPGVSVKLSCKASGYTFTTYSINWMKQRPGQGLEWIGNIYPSTSHTNYNQKFRDKATMTVDKSSSTAYMQLSSPTSEDSAVYYCTINAYSMDYWGQGTSVTVSS
VL: QIVLTQSPEIMSASPGEKVTITCSASSSVSFMYWFQQKPGTSPKLWIYITSNLASGVPTRFSGSGSGTSYSLTISRMEAEDAATYYCQQRSSFPYTFGGGTKLEMKR
For B9, the Reactivity (OD492) in assay [2] stood at 0.09 OD; in [3] it was 0.71 OD; in assay [4] it was 0.09 OD.

B10: HCV 208A-983 (antibody, V domains shown)
VH: QGQMQQSGAELVKPGASVKLSCKTSGFTFSSSYFSWLKQKPGQSLEWIAWIYAGTGNTIYNQKFTDKAQLTVDTASSTAFMQLSSLTIEDSAIYYCAISGTGFTYWGQGTLVTVSA
VL: DVLMTQTPLSLPVNLGDQASISCRSSQSLLHSNGNTYLEWFLQKPGQSPKLLIYNVSNRFSGVPDRFSGSGSGTDFTLKISRVEAEDLGVYYCFQGSHVPFTFGSGTKLAIKR
Consider B10, for which the expected % binding in assay [12], in [13], in assay [14] and in assay [15] was less than 1% each time. The Reactivity (OD492) in [2] was 0.4 OD; in assay [3], 0.05 OD; in assay [4] it was 3.03 OD.

B11: HCV 208A-692 (antibody, V domains shown)
VH: QGQMQQSGAELAKPGASVKLSCKTSGFTFSSSYISWLKQKPGQSLEWIAWIFAGTGNTNYNQKFTDKAQLTVDTSSSTAYMQLSSLTTEDSAIYYCAISGTGFTYWGQGTLVTVSA
VL: EVLMTQSPLSLPVSLGDQASISCRSSQSLEHSNGNTYLEWFLQRPGQPPKLLIYKVSSRFSGVPDRFSGSGSGTDFTLKISRVEAEDLGVYYCFQGSHVPFTFGSGTKLAIKR
As for B11, the Reactivity (OD492) is 0.38 OD in [9], 0.07 OD in assay [3] and 3.67 OD in [4].

B12: HCV 208B-471 (antibody, V domains shown)
VH: QGQLQQSGPVLVKPGASEILYCKTSGFTFSSTYISWLKQKPGQSLEWIAWIYAGTGATNYNQKFTGKAQLTVDASSNTAYMHFSGLTPEDSAIYYCAISGAGVYWGQGTLVTVSA
VL: DVVMTQTPLSLPVSLGDQASISCRSSQSLLHSNGNTYLEWYLQKPGQSPNLLIYNVSNRFSGVPDRFSGSGSGTDFALKISRVGAEDLGVYYCFQGSHVPLTFGAGTKLELKR
For B12, the expected % binding in [12], in assay [13], in assay [14] and in assay [15] was less than 1% each time. The Reactivity (OD492) in [2] was 0.11 OD; in [3], 0.08 OD; in assay [4], 1.62 OD.
